In publication PMC5003418:

Key:
[1] = target: HIV-1 integrase K264A/K266A, recombinant, 6xHis-tagged (HIV-1); assay: SEC
[2] = target: HIV-1 integrase R269A/K273A, recombinant, 6xHis-tagged (HIV-1); assay: SEC

Row | Substance | stoichiometry N [1] | stoichiometry N [2]
1 | HIV-1 integrase K264A/K266A, recombinant, 6xHis-tagged (enzyme) | 4 | 
2 | HIV-1 integrase R269A/K273A, recombinant, 6xHis-tagged (enzyme) |  | 4
